Substrate in series [1]: O=C(O)CC[C@H](C(=O)O)[C@@H](O)C(=O)O
Kind of series: Homoisocitrate dehydrogenase activity, NADH absorption at 340 nm. The format is biochemical. The conditions noted are these: other: recombinant C. albicans HIcDH; pH 7.8; 20.0 °C. How it is done:
(§1) Recombinant C. albicans homoaconitase (HA) and homoisocitrate dehydrogenase (HIcDH) containing oligoHis N-terminal tags were constructed and purified to near homogeneity as described earlier.
Reaction catalyzed by homoisocitrate dehydrogenase (HIcDH) was monitored by measuring the NADH absorption at 340 nm. The standard assay mixture contained 10 mM KCl, 5.0 mM MgCl2, 5 mM NAD^+ and 0.1 mM (2R,3S)-homoisocitrate in 50 mM Hepes-NaOH (pH 7.8) buffer. The reaction mixture with all required components except for the enzyme was preincubated for 3 min and the reaction was started by an addition of the recombinant His6-HIcDH (50 μg). The formation of NADH was measured for 30 s at 20 °C to determine initial reaction velocity. The initial rates were determined using a linear portion of the reaction progress curve.
(§2) The effects of novel compounds on the HA and HIcDH activity was determined by measuring the enzyme activity in standard assay mixtures containing various concentration of an inhibitor (0–10 mM). Inhibitory potential was expressed as IC50 values, i.e., concentrations causing 50% inhibition of enzyme activity in relation to control. All determinations were performed in triplicate.

Substrate in series [2]: O=C(O)CC[C@@](O)(CC(=O)O)C(=O)O
Kind of series: Homoaconitase activity, coupled reaction with HIcDH, NADH at 340 nm. The conditions noted are these: other: recombinant C. albicans HA; pH 8.5; 20.0 °C. In kind it is biochemical, Candida albicans. As for the experimental part:
as §1
Activity of homoaconitase (HA) was measured by a coupled reaction with HIcDH by monitoring the reduction of NAD^+ to NADH at 340 nm. Reaction mixtures containing 50 mM Tris-HCl (pH 8.5), 50 mM KCl, 5 mM MgCl2, 20 mM dithiothreitol, 1 mM NAD^+ and 30 μg/mL of His6-HIcDH in a total volume of 0.9 mL were degassed under argon for 10 min, after which 0.05 mL of His6-HAC solution was added to a final concentration of 10 μg/mL. The reaction was initiated with addition of 0.05 mL of 50 mM (R)-homocitrate. The formation of NADH was measured for 30 s at 20 °C to determine initial reaction velocity. The initial rates were determined using a linear portion of the reaction progress curve.
as §2

B1: recombinant homoisocitrate dehydrogenase (HIcDH) (Candida albicans SC5314) (protein)
chain: STSSTTLKSLKIGLIPGDGIGREVIPAGKAVLENLPAKHDLQFEFVNLDAGFELFKKTGTALPDETVDVLKKECDGALFGAVSSPTTKVAGYSSPIVALRKKLGLYANVRPVKSVEGIGRPVDMVIVRENTEDLYIKEERVYKKEDGTKVAEAIKRITETASTRIAKMAYEIALQREAVRKGTSGKQLHEKPSVTVTHKSNVLSQSDGLFRETCRAVYDANANEYGGIEYKEQIVDSMVYRMFREPEIFDVVVAPNLYGDILSDGAAALVGSLGVVPSANVGDNFAIGEPCHGSAPDIEGKGISNPVATIRSTALMLEFMGYPEAAATIYQAVDANLAEDKIKTPDLGGNSTTQEVIDDIIRRF
With B1, the Michaelis constant (Km) (commonly the concentration of substrate that gives half-maximal velocity) in series [1] was 74 µM.

B2: recombinant homoaconitase (HA) (Candida albicans SC5314) (protein)
chain: MMLRFRSFSTTTHLLRGQNLTEKIVQKYAVGLQPSSKKVYSGDYVTIKPAHCMSHDNSWPVATKFMNLGASKVKDNRQIVCTLDHDVQNKSEQNLTKYTNIEKFAKSQGIDFYPAGRGIGHQIMIEEGYAFPLNLTVASDSHSNTYGGIGALGTPIVRTDAASIWATGQTWWQIPPVAKVELIGQLPKGVTGKDIIVALCGIFNNDEVLNHAIEFVGDDAISKLPIDYRLTIANMTTEWGALSGLFPVDETLVEFYQNRLKKLNKPDHPRINNQTIDQLINNKLTSDNDAVYAKHLQIDLSSLSPYISGPNSVKISNSLYDLSQQNIAINKAYLVSCTNSRLSDIQAAADIIKGHKVNPNVEFYVAAASSLVQKDAEQSGAWQTILDAGAKPLPAGCGPCIGLGTGLLKDGEVGISATNRNFKGRMGSKDALAYLASPEVVAASAVLGKIGGPEELNGEPVKQAPRIIKSIETESNSANEAESTSEEASGSIDILPGFPQSIEGELILCNADNINTDGIYPGKYTYQDDITKEQMAKVCMENYDSQFYSKTKPGDIIISGYNFGTGSSREQAATCILARGMKLIVAGSFGNIFSRNSINNALLTLEIPDLINKLRQQYEGNDELTIRTGWFLKWDVTKAQVTVVDGDDNLILTQKVGELGTNLQDIIVKGGLEGWVKSELKTNQ
notes: made in house
Turning to B2, the Km in series [2] turned out to be 1500 µM.

Source of the values: paper PMC6268379, “Antifungal Activity of Homoaconitate and Homoisocitrate Analogs” (Molecules, 2012).
